Residue numbers refer to the chain shown, from its start. Numbers in names are those of the source.

T1: EsCas13d, nuclease-dead (Eubacterium siraeum, UniProt B0MS50, R295A;H300A;R849A;H854A)
T1 sequence: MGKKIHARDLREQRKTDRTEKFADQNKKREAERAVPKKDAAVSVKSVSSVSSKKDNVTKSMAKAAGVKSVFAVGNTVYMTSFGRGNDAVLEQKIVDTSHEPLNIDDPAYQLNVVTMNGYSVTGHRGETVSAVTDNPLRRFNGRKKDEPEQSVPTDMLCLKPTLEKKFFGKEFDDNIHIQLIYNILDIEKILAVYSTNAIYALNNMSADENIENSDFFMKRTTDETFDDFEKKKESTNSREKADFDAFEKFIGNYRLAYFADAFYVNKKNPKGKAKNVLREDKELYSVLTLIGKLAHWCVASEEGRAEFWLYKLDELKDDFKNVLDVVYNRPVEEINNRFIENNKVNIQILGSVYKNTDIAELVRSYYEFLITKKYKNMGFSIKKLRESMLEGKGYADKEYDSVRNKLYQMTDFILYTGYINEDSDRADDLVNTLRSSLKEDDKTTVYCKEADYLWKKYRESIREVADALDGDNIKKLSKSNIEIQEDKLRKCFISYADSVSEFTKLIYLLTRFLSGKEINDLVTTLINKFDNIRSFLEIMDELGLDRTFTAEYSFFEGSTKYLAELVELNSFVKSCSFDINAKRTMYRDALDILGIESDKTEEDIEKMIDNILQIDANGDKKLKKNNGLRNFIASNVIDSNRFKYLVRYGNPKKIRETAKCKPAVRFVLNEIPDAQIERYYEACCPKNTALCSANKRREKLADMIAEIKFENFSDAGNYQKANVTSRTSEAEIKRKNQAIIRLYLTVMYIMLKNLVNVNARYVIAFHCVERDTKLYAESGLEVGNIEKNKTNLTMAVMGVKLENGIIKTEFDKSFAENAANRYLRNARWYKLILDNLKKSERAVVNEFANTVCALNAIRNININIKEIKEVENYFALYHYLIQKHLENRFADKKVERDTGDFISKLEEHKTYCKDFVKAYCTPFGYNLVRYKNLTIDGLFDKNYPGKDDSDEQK

B1: target 2 MT 5'PFS GAG 3'PFS CGU (mixed)
RNA 1: CACCCGUGCAAAAUUGCAGGGGUCUAAAACCUUCUCCAAAUUGUUUCAUCCU
RNA 2: GGGAAUGGAUCCACAUCUACGAAUUCGAGAGGAUGAAACAAUUUGGAGAAGCGUAGAUCGGAAGAGCACACGU
B2: target 2 MT 5'PFS CAG 3'PFS CAA (mixed)
RNA 1: B1 RNA 1
RNA 2: B1 RNA 2 with G27C, G53A, U54A
B3: target 2 MT 5'PFS CGA 3'PFS CUU (mixed)
RNA 1: B1 RNA 1
RNA 2: B1 RNA 2 with G27C, A28G, G29A, G53U
B4: target 2 MT 5'PFS UAG 3'PFS UCC (mixed)
RNA 1: B1 RNA 1
RNA 2: B1 RNA 2 with G27U, C52U, G53C, U54C
B5: target 2 MT 5'PFS GGA 3'PFS UAU (mixed)
RNA 1: B1 RNA 1
RNA 2: B1 RNA 2 with A28G, G29A, C52U, G53A
B6: target 2 MT 5'PFS GAG 3'PFS AGU (mixed)
RNA 1: B1 RNA 1
RNA 2: B1 RNA 2 with C52A
B7: target 2 MT 5'PFS CAG 3'PFS CAC (mixed)
RNA 1: B1 RNA 1
RNA 2: B1 RNA 2 with G27C, G53A, U54C
B8: target 2 MT 5'PFS CGA 3'PFS UUA (mixed)
RNA 1: B1 RNA 1
RNA 2: B1 RNA 2 with G27C, A28G, G29A, C52U, G53U, U54A
B9: target 2 MT 5'PFS GUA 3'PFS UGU (mixed)
RNA 1: B1 RNA 1
RNA 2: B1 RNA 2 with A28U, G29A, C52U
B10: target 2 MT 5'PFS UUC 3'PFS ACC (mixed)
RNA 1: B1 RNA 1
RNA 2: B1 RNA 2 with G27U, A28U, G29C, C52A, G53C, U54C
B11: target 2 MT 5'PFS CGC 3'PFS AGU (mixed)
RNA 1: B1 RNA 1
RNA 2: B1 RNA 2 with G27C, A28G, G29C, C52A
B12: target 2 MT 5'PFS GGA 3'PFS UAC (mixed)
RNA 1: B1 RNA 1
RNA 2: B1 RNA 2 with A28G, G29A, C52U, G53A, U54C
B13: target 2 MT 5'PFS UUG 3'PFS CGA (mixed)
RNA 1: B1 RNA 1
RNA 2: B1 RNA 2 with G27U, A28U, U54A
B14: target 2 MT 5'PFS GAG 3'PFS CGC (mixed)
RNA 1: B1 RNA 1
RNA 2: B1 RNA 2 with U54C
B15: target 2 MT 5'PFS UUG 3'PFS CGC (mixed)
RNA 1: B1 RNA 1
RNA 2: B1 RNA 2 with G27U, A28U, U54C
B16: target 2 MT 5'PFS GCC 3'PFS CUG (mixed)
RNA 1: B1 RNA 1
RNA 2: B1 RNA 2 with A28C, G29C, G53U, U54G
B17: target 2 MT 5'PFS CGA 3'PFS CUA (mixed)
RNA 1: B1 RNA 1
RNA 2: B1 RNA 2 with G27C, A28G, G29A, G53U, U54A
B18: target 2 MT 5'PFS GAG 3'PFS CGG (mixed)
RNA 1: B1 RNA 1
RNA 2: B1 RNA 2 with U54G
B19: target 2 MT 5'PFS GGA 3'PFS CAG (mixed)
RNA 1: B1 RNA 1
RNA 2: B1 RNA 2 with A28G, G29A, G53A, U54G
B20: target 2 MT 5'PFS GGA 3'PFS UAA (mixed)
RNA 1: B1 RNA 1
RNA 2: B1 RNA 2 with A28G, G29A, C52U, G53A, U54A
B21: target 2 MT 5'PFS GGA 3'PFS CAC (mixed)
RNA 1: B1 RNA 1
RNA 2: B1 RNA 2 with A28G, G29A, G53A, U54C
B22: target 2 MT 5'PFS CAG 3'PFS CAG (mixed)
RNA 1: B1 RNA 1
RNA 2: B1 RNA 2 with G27C, G53A, U54G
B23: target 2 MT 5'PFS GAG 3'PFS CGA (mixed)
RNA 1: B1 RNA 1
RNA 2: B1 RNA 2 with U54A
B24: target 2 MT 5'PFS GCC 3'PFS CUC (mixed)
RNA 1: B1 RNA 1
RNA 2: B1 RNA 2 with A28C, G29C, G53U, U54C
B25: target 2 MT 5'PFS GCC 3'PFS CUA (mixed)
RNA 1: B1 RNA 1
RNA 2: B1 RNA 2 with A28C, G29C, G53U, U54A
B26: target 2 MT 5'PFS GGA 3'PFS CAA (mixed)
RNA 1: B1 RNA 1
RNA 2: B1 RNA 2 with A28G, G29A, G53A, U54A
B27: target 2 MT 5'PFS CGA 3'PFS UUU (mixed)
RNA 1: B1 RNA 1
RNA 2: B1 RNA 2 with G27C, A28G, G29A, C52U, G53U
B28: target 2 MT 5'PFS GGA 3'PFS UAG (mixed)
RNA 1: B1 RNA 1
RNA 2: B1 RNA 2 with A28G, G29A, C52U, G53A, U54G
B29: target 2 MT 5'PFS UUC 3'PFS ACA (mixed)
RNA 1: B1 RNA 1
RNA 2: B1 RNA 2 with G27U, A28U, G29C, C52A, G53C, U54A
B30: target 2 MT 5'PFS ACC 3'PFS UCC (mixed)
RNA 1: B1 RNA 1
RNA 2: B1 RNA 2 with G27A, A28C, G29C, C52U, G53C, U54C
B31: target 1 insU 3' of 12,insU 3' of 12 (mixed)
RNA 1: CACCCGUGCAAAAAUGCAGGGGUCUAAAACUGAGCGGAUAACCUCUCUAUGG
RNA 2: GGGAAUGGAUCCACAUCUACGAAUUCGUACCAUAGAGAGGUUUUAUCCGCUCACCGAGAUCGGAAGAGCACACGU
B32: target 1 C2U,A14C (mixed)
RNA 1: B31 RNA 1
RNA 2: GGGAAUGGAUCCACAUCUACGAAUUCGUACCAUAGAGCGGUUAUCCGCUUACCGAGAUCGGAAGAGCACACGU
B33: target 1 insG 3' of 9,insA 3' of 6 (mixed)
RNA 1: B31 RNA 1
RNA 2: B31 RNA 2 with U43A, U44G, A45U, U46C, C48A
B34: target 1 A14U,G15A (mixed)
RNA 1: B31 RNA 1
RNA 2: B32 RNA 2 with G37A, C38U, U50C
B35: target 1 del3,del11 (mixed)
RNA 1: B31 RNA 1
RNA 2: GGGAAUGGAUCCACAUCUACGAAUUCGUACCAUAGAGAGGUAUCCGCCACCGAGAUCGGAAGAGCACACGU

In the series the target is T1, EsCas13d, nuclease-dead. Put plainly: crRNA (strand 1, pre-loaded); Mg2+; 40 mM Tris-HCl pH 7.5, 150 mM NaCl, 6 mM MgCl2, 1 mM DTT, 0.1% Tween-20, 0.2 mg/ml BSA; 25 C; 10 min per concentration, then washed. As to conditions: tags: His6-TwinStrep-SUMO cleaved; N-terminal SNAP kept (SNAP-Surface 488); label: 3' end held by stalled T7 RNA polymerase.
With B1, the affinity, expressed as Kd, was 9.4 ± 0.9 nM.
In turn, B2 displayed a Kd of 6.6 ± 2.7 nM.
The molecule B3 returned a Kd of 8.3 ± 1.1 nM.
The same measure for B4: 7.9 ± 0.8 nM; for B5: 9.1 ± 1.1 nM; for B6: 9.1 ± 1.1 nM.
The same measure for B7: 5.6 ± 1.6 nM; for B8: 9 ± 1.7 nM.
With B9 the figure was 15.2 ± 1.2 nM; with B10, about 16 nM.
For the molecule B11, binding was put at a Kd of 4.3 ± 0.6 nM.
In turn, B12 showed a Kd of 16.1 ± 2.7 nM.
With B13 the figure was 11.4 ± 1 nM; with B14, 6.4 ± 0.4 nM; with B15, 15.9 ± 1.5 nM.
Turning to B16, the Kd worked out at 12.7 ± 2.1 nM.
With B17 the figure was 8.3 ± 1.3 nM; with B18, 5.8 ± 0.4 nM.
The same measure for B19: 11.5 ± 1.5 nM.
The same measure for B20: 5.6 ± 0.9 nM; for B21: 9.4 ± 1 nM.
Molecule B22 gave a Kd of 7.2 ± 1.2 nM.
With B23 the figure was 4.9 ± 0.4 nM; with B24, 18.3 ± 2.3 nM.
The same measure for B25: 11.7 ± 2.4 nM; for B26: 6.7 ± 1.2 nM; for B27: 9.2 ± 1.7 nM.
The same measure for B28: 8.7 ± 0.7 nM.
B29 displayed a Kd of about 21 nM.
The same measure for B30: 5.5 ± 0.6 nM; for B31: 10.1 ± 0.8 nM; for B32: 80 ± 13 nM.
B33 had a Kd of 13.4 ± 0.7 nM. Against the preceding molecule, the Kd is about 6-fold lower.
With B34 the figure was 64 ± 10 nM; with B35, 66 ± 16 nM.

These data come from article PMC10786891, “Massively parallel profiling of RNA-targeting CRISPR-Cas13d”.
